Values quoted from earlier work, collected in publication PMC4125468.
Where two headings read alike, the source gives them in different places.

Key:
sCD14 (Homo sapiens) = sCD14 (Homo sapiens) (UniProt P08571)
MD-2 (Homo sapiens) [1] = molecular target: MD-2 (Homo sapiens) (UniProt Q9Y6Y9); assay: radioligand binding
MD-2 (Homo sapiens) [2] = molecular target: MD-2 (Homo sapiens) (UniProt Q9Y6Y9)

UniProt P08571, sequence (P08571 20-345): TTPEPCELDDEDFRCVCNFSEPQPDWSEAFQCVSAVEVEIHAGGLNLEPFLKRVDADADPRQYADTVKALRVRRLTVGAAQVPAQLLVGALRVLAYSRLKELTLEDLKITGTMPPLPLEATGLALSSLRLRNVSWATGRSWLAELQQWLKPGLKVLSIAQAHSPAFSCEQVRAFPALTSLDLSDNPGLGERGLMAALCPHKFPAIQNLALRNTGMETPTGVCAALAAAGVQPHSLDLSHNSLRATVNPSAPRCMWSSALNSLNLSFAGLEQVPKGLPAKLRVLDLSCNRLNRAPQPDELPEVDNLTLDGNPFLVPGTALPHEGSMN

MD-2/TLR4ECD ECD (from UniProt Q9Y6Y9)
Kd (sCD14 (Homo sapiens)): 0.2 nM

TLR4 ECD (from UniProt O00206)
Kd (MD-2 (Homo sapiens) [1]): 0.5 nM

TLR4ECD ECD (from UniProt O00206)
Kd (MD-2 (Homo sapiens) [2]): 0.2 nM
